Test results reported in patent US20240018268A1 (JUNO THERAPEUTICS, published 2024).

How the values were obtained:
[1] = target: T1, human Fc-fusion protein containing the FMC63-derived scFv portion of the CAR (biotinylated ECD fusion protein … (biotinylated (capture form))); sulfo-tagged (detection form)); assay: bridge assay, biotinylated scFv-Fc on streptavidin plate, sulfo-tagged scFv-Fc detection, ECL (MSD)
T1 construct: also called FMC63-derived Fc-scFv fusion; not shown: human Fc
Text: A bridge anti-therapeutic antibody (ATA) assay was developed to detect the presence or absence of antibodies, in serum of treated subjects, recognizing administered anti-CD19 CARs. Certain anti-ID antibodies described in Examples 1-3 were used as positive controls and to validate the ability of the assay to detect the presence of such antibodies.
A biotinylated human Fc-fusion protein (biotinylated ECD fusion protein) was used, containing an scFv portion of the CAR with variable regions derived from FMC63 (set forth in SEQ ID NO:34). The biotinylated ECD fusion protein was added to streptavidin-coated wells; the plates were incubated under conditions to allow binding of the fusion protein, and washed. To the biotinylated fusion protein-coated wells, various concentrations of anti-ID B-1 or anti-ID B-2 were added to the wells, and allowed to incubate under conditions to allow specific binding of the antibody. After washing, a sulfo-tagged version of the ECD fusion protein (sulfo-ECD fusion protein) containing the FMC63-derived Fc-scFv fusion. The wells were washed and an electrochemiluminescence (ECL) signal was read on a Meso Scale Discovery (MSD) Sector Imager.

[2] = target: T2, anti-CD19 (FMC63-derived) chimeric antigen receptor (CAR), expressed on T cells; assay: inferred from a T cell proliferation assay with plate-bound antibody
T2 construct: Whole CAR on the surface of transduced human T cells/PBMCs, co-expressed with EGFRt from the same construct (T2A); treated here as one molecule; also called anti-CD19 (FMC63) CAR; FMC63-derived CAR
Protocol: For proliferation studies, engineered T cells were labeled with 50 nM carboxyfluorescein succinimidyl ester (CFSE) or CELL TRACE VIOLET (CTV) dye. Where relevant, expression of the surrogate EGFRt marker was detected by staining with an anti-EGFR antibody. Cells were seeded at a fixed number of cells per well in wells previously coated with 10, 5, 2.5, or 1.25 μg/ml of OKT3 (anti-CD3 antibody), or of anti-idiotype antibodies recognizing SJ25C1 and FMC63 (anti-ID A-land anti-ID B-1, respectively) in sodium carbonate/bicarbonate buffer (pH 9.0) overnight. Cells seeded in wells with no antibody coating were included as negative controls. The cells were cultured for 4 days and assessed for viability, proliferation, and expression of CD69 and CD25.
Proliferation of anti-CD19 (SJ25C1 or FMC63) CAR− expressing T cells was assessed by dye dilution using flow cytometry. The percent of CD3⁺/CFSE® w cells observed following stimulation of anti-CD19 (SJ25C1) CAR− expressing T cells with anti-ID A-1 is shown in FIG. 2A. The percent of CD3⁺/EGFR+/CFSE® W cells observed following stimulation of anti-CD19 (FMC63) CAR− expressing T cells with anti-ID B-1 is shown in FIG. 2B. […]

[3] = target: T3, anti-CD19 (SJ25C1-derived) chimeric antigen receptor (CAR), expressed on T cells or Jurkat cells (human, UniProt P10747 153-179; P10747 180-220; P20963 52-163, limits assumed); assay: flow cytometry, biotin-conjugated antibody and PE-streptavidin on CAR-transduced cells
T3 construct: domain: transmembrane domain;domain: intracellular signaling domain;domain: signaling domain; Whole CAR on the surface of transduced human T cells, PBMCs or Jurkat cells; also called anti-CD19 (SJ25C1) CAR; SJ25C1-derived CAR
Protocol: Hybridoma fusion clones were generated and 12 candidate clones were further characterized by flow cytometry. Peripheral blood mononuclear cells were isolated from human subjects and cells were activated and transduced with a viral vector encoding the anti-CD19 CAR. For flow cytometry, about 1×10⁶ cells per 100 μL were incubated with 10 μL of biotin-conjugated anti-idiotype antibody followed by staining with a PE-conjugated streptavidin. As a positive control for surface expression of the CAR, cells were stained with an anti-EGFR antibody to verify expression of the EGFRt transduction marker, which was a surrogate of CAR expression. […] Cells were gated on CD3⁺ CD4⁺/CD8⁺ PBMCs and fluorescence signal was determined. […] To confirm the antibodies were specific for the scFv derived from the anti-CD19 antibody derived from FMC63, similar experiments were performed on cells transduced with an anti-CD19 CAR derived from SJ25C1 as described in Example 1. […] Anti-idiotype antibody clones B-1 (anti-ID B-1) and B-2 (anti-ID B-2) were selected for further characterization.

[4] = target: T2, anti-CD19 (FMC63-derived) chimeric …; assay: flow cytometry, CAR T cells spiked into human PBMCs
Protocol: The anti-CD19 CAR expressing cells were spiked in to a sample of cells containing healthy human peripheral blood mononuclear cells (PBMCs). The resulting cell compositions were incubated with different concentrations of the anti-CD19 FMC63 scFv-specific anti-ID B1 or anti-ID B2 antibodies. As a control, samples of each condition were also incubated with a concentration of anti-EGFR antibody, capable of detecting the EGFRt surrogate marker on the transduced cells. Control samples included those only containing the PBMCs without the addition of added CAR− expressing T cells. Geometric mean fluorescence intensity (MFI) was quantified in positively labeled cells to assess antibody staining.

[5] = target: recombinant soluble extracellular domain (ECD) portion of the anti-CD19 (SJ25C1-derived) CAR (human); assay: ELISA on the recombinant soluble ECD portion; A-1 is the one named clone of the five
recombinant soluble extracellular domain (ECD) portion of the anti-CD19 (SJ25C1-derived) CAR (human), sequence (chain, as listed by the source): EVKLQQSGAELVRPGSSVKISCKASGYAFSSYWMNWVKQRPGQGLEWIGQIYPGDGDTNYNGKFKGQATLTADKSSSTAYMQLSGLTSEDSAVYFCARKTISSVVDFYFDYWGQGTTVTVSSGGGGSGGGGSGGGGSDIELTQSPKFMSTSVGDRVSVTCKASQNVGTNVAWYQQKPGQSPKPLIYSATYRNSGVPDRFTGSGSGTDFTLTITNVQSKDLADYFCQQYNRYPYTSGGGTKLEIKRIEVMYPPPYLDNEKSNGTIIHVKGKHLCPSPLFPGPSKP

T3 sequence (P10747 other isoform, or with tags, fused parts or gaps mutant limits assumed): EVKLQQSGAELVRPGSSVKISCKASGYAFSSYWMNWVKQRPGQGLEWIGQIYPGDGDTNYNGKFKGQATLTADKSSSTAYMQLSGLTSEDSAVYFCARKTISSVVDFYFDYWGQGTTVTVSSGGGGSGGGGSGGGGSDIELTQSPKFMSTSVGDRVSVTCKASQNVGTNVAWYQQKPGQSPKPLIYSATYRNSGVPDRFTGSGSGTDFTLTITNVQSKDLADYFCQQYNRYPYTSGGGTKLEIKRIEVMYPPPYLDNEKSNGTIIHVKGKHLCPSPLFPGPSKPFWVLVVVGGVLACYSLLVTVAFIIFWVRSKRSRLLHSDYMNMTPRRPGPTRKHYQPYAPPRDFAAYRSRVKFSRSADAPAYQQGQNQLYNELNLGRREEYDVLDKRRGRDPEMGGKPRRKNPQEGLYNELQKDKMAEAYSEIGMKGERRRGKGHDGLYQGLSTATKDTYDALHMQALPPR

B1: anti-idiotype antibody clone B-1 (anti-ID B-1) (antibody, mouse IgG2a, kappa, V domains shown)
VH: EVQLQQSGPELVKPGASVKMSCKASGYTFTDYYMKWVKQCHGKSLEWIGDINPNNGGTDYNQNFKGKATLTVDKSSSTAYMQLNSLTSEDSAVYYCAREGNNYGSRDAMDYWGQGTSVTVSS
VL: QIVLTQSPALMSASPGEKVTMTCSASSGVIYMYWYQQKPRSSPKPWIYLTSNLASGVPARFSGSGSGTSYSLTISSMEAEDAATYYCQQWSSNPLTFGAGTKLELKR
notes: Mouse hybridoma antibody; also called FMC63-derived scFv-specific anti-idiotype antibody
binding result [1]: binds
binding result [2]: binds
binding result [3]: no binding

B2: anti-idiotype antibody clone B-2 (anti-ID B-2) (antibody, mouse IgG1, kappa, V domains shown)
VH: QVQLQQPGAELVRPGASVKLSCKTSGYSFTRYWMNWVKQRPGQGLEWIGMIHPSDSETRLNQKFKDKATLTVDNSSSTAYMQLSSPTSEDSAVYYCASIYYEEAWGQGTLVTVSA
VL: DIQMTQSPASLSASVGETVTITCRASGNIHNYLAWYQQKQGKSPQLLVYNAKTLADSVPSRFSGSGSGTQYSLKINSLQPEDFGSYYCQHFWSTPYTFGGGTKLEIKR
notes: Mouse hybridoma antibody
binding result [1]: binds
binding result [3]: no binding
binding result [4]: binds

B3: anti-idiotype antibody clone A-1 (anti-ID A-1) (antibody, mouse IgG1, kappa, V domains shown)
VH: QVQLQQPGSELVRPGGSVKLSCKASDYTFTSYWMHWVRQRPGQGLEWIGNIYPGSGGTNYDEKFKRKATLTVDTSSSTAYMQLRSLTSEDSAVYYCTREVTTVAYYYSMDYWGQGTSVTVSS
VL: DIQMTQTTSSLSASLGDRVTISCRASQDISNYLNWYQQKPDGTVKLLIYYTSRLHSGVPSRFSGSGSGTDYSLTISNLEQEDIATYFCQQGKTVPFTFGSGTKLEIKR
notes: Mouse hybridoma antibody; also called SJ25C1-derived scFv-specific anti-idiotype antibody; SJ25C1-specific anti-idiotype antibody
binding result [5]: binds
